Test: melting temperature; melt of duplexes
Details: sodium 0.0675 M; strand 1 µM

CGACGTGCGTAATGTGCTG+CAGCACATTCAGCACGTCG ((((((((..(((((((((+)))))))))..))))))))
Tm: 54.7 °C

CGACGTGCGTAATGTGCTG+CAGCACATTCTGCACGTCG ((((((((..(((((((((+)))))))))..))))))))
Tm: 53.4 °C

CGACGTGCGTAATGTGCTG+CAGCACATTGAGCACGTCG ((((((((..(((((((((+)))))))))..))))))))
Tm: 56.6 °C

CGACGTGCGTAATGTGCTG+CAGCACATTGCGCACGTCG (((((((((.(((((((((+))))))))).)))))))))
Tm: 60.3 °C

CGACGTGCGTAATGTGCTG+CAGCACATTGGGCACGTCG ((((((((..(((((((((+)))))))))..))))))))
Tm: 55 °C

CGACGTGCGTAATGTGCTG+CAGCACATTGTGCACGTCG ((((((((..(((((((((+)))))))))..))))))))
Tm: 52 °C

CGACGTGCGTAATGTGCTG+CAGCACATTTTGCACGTCG ((((((((..(((((((((+)))))))))..))))))))
Tm: 54.4 °C

CGACGTGCGTCATGTGCTG+CAGCACATAATGCACGTCG ((((((((.(.((((((((+)))))))).).))))))))
Tm: 52.2 °C

CGACGTGCGTCATGTGCTG+CAGCACATAGTGCACGTCG ((((((((...((((((((+))))))))...))))))))
Tm: 45.9 °C

CGACGTGCGTCATGTGCTG+CAGCACATATGGCACGTCG ((((((((...((((((((+))))))))...))))))))
Tm: 49.8 °C

CGACGTGCGTCATGTGCTG+CAGCACATCAAGCACGTCG ((((((((.(.((((((((+)))))))).).))))))))
Tm: 52.6 °C

CGACGTGCGTCATGTGCTG+CAGCACATCATGCACGTCG ((((((((.(.((((((((+)))))))).).))))))))
Tm: 50.8 °C

CGACGTGCGTCATGTGCTG+CAGCACATCCGGCACGTCG ((((((((...((((((((+))))))))...))))))))
Tm: 48.7 °C

CGACGTGCGTCATGTGCTG+CAGCACATCCTGCACGTCG ((((((((...((((((((+))))))))...))))))))
Tm: 48.9 °C

CGACGTGCGTCATGTGCTG+CAGCACATGACGCACGTCG (((((((((((((((((((+)))))))))))))))))))
Tm: 66.4 °C

CGACGTGCGTCATGTGCTG+CAGCACATGCCGCACGTCG (((((((((.(((((((((+))))))))).)))))))))
Tm: 59.9 °C

CGACGTGCGTCATGTGCTG+CAGCACATGGAGCACGTCG ((((((((..(((((((((+)))))))))..))))))))
Tm: 58.4 °C

CGACGTGCGTCATGTGCTG+CAGCACATGTGGCACGTCG ((((((((..(((((((((+)))))))))..))))))))
Tm: 54.8 °C

CGACGTGCGTCATGTGCTG+CAGCACATTCCGCACGTCG (((((((((..((((((((+))))))))..)))))))))
Tm: 52.8 °C

CGACGTGCGTCATGTGCTG+CAGCACATTCGGCACGTCG ((((((((...((((((((+))))))))...))))))))
Tm: 48.7 °C

CGACGTGCGTCATGTGCTG+CAGCACATTCTGCACGTCG ((((((((...((((((((+))))))))...))))))))
Tm: 49.2 °C

CGACGTGCGTCATGTGCTG+CAGCACATTGCGCACGTCG (((((((((..((((((((+))))))))..)))))))))
Tm: 54.7 °C

CGACGTGCGTCATGTGCTG+CAGCACATTTAGCACGTCG ((((((((...((((((((+))))))))...))))))))
Tm: 51.6 °C

CGACGTGCGTCATGTGCTG+CAGCACATTTGGCACGTCG ((((((((...((((((((+))))))))...))))))))
Tm: 48.7 °C

CGACGTGCGTCATGTGCTG+CAGCACATTTTGCACGTCG ((((((((...((((((((+))))))))...))))))))
Tm: 48.4 °C

CGACGTGCGTGATGTGCTG+CAGCACATAATGCACGTCG ((((((((.(.((((((((+)))))))).).))))))))
Tm: 52.9 °C

CGACGTGCGTGATGTGCTG+CAGCACATACCGCACGTCG (((((((((..((((((((+))))))))..)))))))))
Tm: 55.3 °C

CGACGTGCGTGATGTGCTG+CAGCACATACGGCACGTCG ((((((((...((((((((+))))))))...))))))))
Tm: 51.1 °C

CGACGTGCGTGATGTGCTG+CAGCACATACTGCACGTCG ((((((((...((((((((+))))))))...))))))))
Tm: 51.1 °C

CGACGTGCGTGATGTGCTG+CAGCACATAGGGCACGTCG ((((((((...((((((((+))))))))...))))))))
Tm: 50.6 °C

CGACGTGCGTGATGTGCTG+CAGCACATATAGCACGTCG ((((((((...((((((((+))))))))...))))))))
Tm: 52.5 °C

CGACGTGCGTGATGTGCTG+CAGCACATATGGCACGTCG ((((((((...((((((((+))))))))...))))))))
Tm: 50 °C

CGACGTGCGTGATGTGCTG+CAGCACATCAAGCACGTCG ((((((((.((((((((((+)))))))))).))))))))
Tm: 58.6 °C

CGACGTGCGTGATGTGCTG+CAGCACATCCCGCACGTCG (((((((((.(((((((((+))))))))).)))))))))
Tm: 59.4 °C

CGACGTGCGTGATGTGCTG+CAGCACATCCGGCACGTCG ((((((((..(((((((((+)))))))))..))))))))
Tm: 55.7 °C

CGACGTGCGTGATGTGCTG+CAGCACATCCTGCACGTCG ((((((((..(((((((((+)))))))))..))))))))
Tm: 55.6 °C

CGACGTGCGTGATGTGCTG+CAGCACATCGAGCACGTCG ((((((((..(((((((((+)))))))))..))))))))
Tm: 58.6 °C

CGACGTGCGTGATGTGCTG+CAGCACATCGGGCACGTCG ((((((((..(((((((((+)))))))))..))))))))
Tm: 57.5 °C

CGACGTGCGTGATGTGCTG+CAGCACATCTGGCACGTCG ((((((((..(((((((((+)))))))))..))))))))
Tm: 55.7 °C

CGACGTGCGTGATGTGCTG+CAGCACATCTTGCACGTCG ((((((((..(((((((((+)))))))))..))))))))
Tm: 55.6 °C

CGACGTGCGTGATGTGCTG+CAGCACATGAAGCACGTCG ((((((((.(.((((((((+)))))))).).))))))))
Tm: 54 °C

CGACGTGCGTGATGTGCTG+CAGCACATGATGCACGTCG ((((((((.(.((((((((+)))))))).).))))))))
Tm: 54 °C

CGACGTGCGTGATGTGCTG+CAGCACATGCCGCACGTCG (((((((((..((((((((+))))))))..)))))))))
Tm: 54.7 °C

CGACGTGCGTGATGTGCTG+CAGCACATGCTGCACGTCG ((((((((...((((((((+))))))))...))))))))
Tm: 49.8 °C

CGACGTGCGTGATGTGCTG+CAGCACATGGTGCACGTCG ((((((((...((((((((+))))))))...))))))))
Tm: 47.8 °C

CGACGTGCGTGATGTGCTG+CAGCACATGTCGCACGTCG (((((((((..((((((((+))))))))..)))))))))
Tm: 55.2 °C

CGACGTGCGTGATGTGCTG+CAGCACATGTTGCACGTCG ((((((((...((((((((+))))))))...))))))))
Tm: 50 °C

CGACGTGCGTGATGTGCTG+CAGCACATTACGCACGTCG ((((((((((.((((((((+)))))))).))))))))))
Tm: 60.4 °C

CGACGTGCGTGATGTGCTG+CAGCACATTAGGCACGTCG ((((((((.(.((((((((+)))))))).).))))))))
Tm: 54.1 °C

CGACGTGCGTGATGTGCTG+CAGCACATTCGGCACGTCG ((((((((...((((((((+))))))))...))))))))
Tm: 51.5 °C

CGACGTGCGTGATGTGCTG+CAGCACATTTGGCACGTCG ((((((((...((((((((+))))))))...))))))))
Tm: 50.4 °C

CGACGTGCGTTATGTGCTG+CAGCACATACTGCACGTCG ((((((((..(((((((((+)))))))))..))))))))
Tm: 51.6 °C

CGACGTGCGTTATGTGCTG+CAGCACATAGCGCACGTCG (((((((((.(((((((((+))))))))).)))))))))
Tm: 58.3 °C

CGACGTGCGTTATGTGCTG+CAGCACATAGGGCACGTCG ((((((((..(((((((((+)))))))))..))))))))
Tm: 52.5 °C

CGACGTGCGTTATGTGCTG+CAGCACATATCGCACGTCG (((((((((.(((((((((+))))))))).)))))))))
Tm: 56.5 °C

CGACGTGCGTTATGTGCTG+CAGCACATATGGCACGTCG ((((((((..(((((((((+)))))))))..))))))))
Tm: 51.1 °C

CGACGTGCGTTATGTGCTG+CAGCACATCACGCACGTCG ((((((((((.((((((((+)))))))).))))))))))
Tm: 56.8 °C

CGACGTGCGTTATGTGCTG+CAGCACATCAGGCACGTCG ((((((((.(.((((((((+)))))))).).))))))))
Tm: 49.9 °C

CGACGTGCGTTATGTGCTG+CAGCACATCCAGCACGTCG ((((((((...((((((((+))))))))...))))))))
Tm: 49.6 °C

CGACGTGCGTTATGTGCTG+CAGCACATCCCGCACGTCG (((((((((..((((((((+))))))))..)))))))))
Tm: 51.7 °C

CGACGTGCGTTATGTGCTG+CAGCACATCGAGCACGTCG ((((((((...((((((((+))))))))...))))))))
Tm: 52.2 °C

CGACGTGCGTTATGTGCTG+CAGCACATCGCGCACGTCG (((((((((..((((((((+))))))))..)))))))))
Tm: 54.6 °C

CGACGTGCGTTATGTGCTG+CAGCACATGACGCACGTCG ((((((((((.((((((((+)))))))).))))))))))
Tm: 58.9 °C

CGACGTGCGTTATGTGCTG+CAGCACATGCCGCACGTCG (((((((((..((((((((+))))))))..)))))))))
Tm: 53.7 °C

CGACGTGCGTTATGTGCTG+CAGCACATGCGGCACGTCG ((((((((...((((((((+))))))))...))))))))
Tm: 49.6 °C

CGACGTGCGTTATGTGCTG+CAGCACATGGAGCACGTCG ((((((((...((((((((+))))))))...))))))))
Tm: 54.8 °C

CGACGTGCGTTATGTGCTG+CAGCACATGGCGCACGTCG (((((((((..((((((((+))))))))..)))))))))
Tm: 57.5 °C

CGACGTGCGTTATGTGCTG+CAGCACATGGTGCACGTCG ((((((((...((((((((+))))))))...))))))))
Tm: 48.3 °C

CGACGTGCGTTATGTGCTG+CAGCACATGTGGCACGTCG ((((((((...((((((((+))))))))...))))))))
Tm: 49.6 °C

CGACGTGCGTTATGTGCTG+CAGCACATTACGCACGTCG ((((((((((.((((((((+)))))))).))))))))))
Tm: 58.6 °C

CGACGTGCGTTATGTGCTG+CAGCACATTAGGCACGTCG ((((((((.(.((((((((+)))))))).).))))))))
Tm: 52.2 °C

CGACGTGCGTTATGTGCTG+CAGCACATTATGCACGTCG ((((((((.(.((((((((+)))))))).).))))))))
Tm: 53 °C

From the array DNA melting data of Ke et al.
